Measurements taken from patent publication US8809529B2, “Imidazo[1,2-α]pyrazine derivatives” (Promega Corporation, priority 2010, dated 2014).
Substitutions are numbered along the chain they refer to. Names may count otherwise.

Assays:
[1] = Brightness and relative specificity of 9B8 and 9B8 opt+K33N variants in E. coli lysates; assay type: biochemical; settings: for Fold over coelenterazine / Fold over 9B8: bacterial lysates; for Fold over coelenterazine: PBI-3939 luminescence divided by native coelenterazine luminescence; for Fold over 9B8: luminescence normalized to 9B8 opt
Procedure: Additional variants with improved relative specificity to novel PBI-3939 were generated as described previously by saturating amino acid positions 18, 68, 72, 75, and 90 in variant 9B8. […] Relative specificity was determined from the ratio of the luminescence of the variant with PBI-3939 to the luminescence of the variant with native coelenterazine, normalized to the ratio of corresponding luminescence of 9B8. Table 8 lists 9B8 variants (“Variant”) with at least 1.1× fold-increase in relative specificity for PBI-3939. […] 9B8 variants with amino acid substitutions K, D, F, G, Y, W, and H at position 18 had the highest fold improvement in relative specificity.
A new OgLuc library was created using 9B8opt+K33N as a starting template. The random library was created using DIVERSIFY® PCR Random Mutagenesis Kit (ClonTech; Catalog #630703). Condition 5 (as listed in the user manual) was used to generate additional variants, and the average mutation rate was calculated to be 2.6 mutations per gene by compiling sequence data from 83 randomly selected clones. This PCR library was cloned into the pF4Ag-based, non-fusion vector background described previously and the sandwich background, i.e., Id-OgLuc-HT7 (described in Example 45). Variants in the pF4Ag-base non-fusion vector background are designated with (NF). Variants in the sandwich vector background are designated with (F). In order to clone the PCR product into both vectors, an amino acid, i.e., a glycine, was appended to the variant sequence in pF4Ag, generating a new position 170 in the OgLuc variant (“170G”). The 170G is present in the sandwich construct, but in this case is considered part of the linker between OgLuc and HT7. For each library, 4,400 E. coli clones were assayed as described previously with the following exceptions. […] The assay buffer contained 100 mM MES pH 6.0 instead of HEPES, and 35 mM thiourea. The assay volumes were as follows: 10 μL cells, 40 μL lysis buffer, and 50 μL assay buffer.
(§1) Based on the above data, further combination variants were designed and generated (see Table 10) in the context of the pF4Ag-based non-fusion vector background without the 170G. The variants were analyzed in E. coli, HEK293 and NIH3T3 cells as described above and compared to 9B8 opt+K33N. The variants were also examined for luminescence with native coelenterazine.
E. coli lysates containing the variants were prepared and analyzed as described previously. Luminescence generated from the lysates was measured using the novel PBI-3939 and native coelenterazine as substrates. The luminescence of the variants was normalized to the luminescence generated by 9B8 opt (Table 12). The relative specificity of the variants for PBI-3939 and native coelenterazine was calculated by dividing the luminescence of the variants using PBI-3939 as a substrate with the luminescence of the variants using native coelenterazine as a substrate (Table 12).

[2] = Luminescence of OgLuc variants expressed in HEK293 cells; assay type: cell-based, human; settings: for Increase in Luminescence: HEK293: normalized to 9B8 opt
Procedure: (§2) The PCR library in the pF4Ag-based non-fusion background was screened for additional variants with increased luminescence compared to 9B8 opt+K33N+170G (SEQ ID NOs: 68 and 69). Selected variants were then assayed in HEK293 and NIH3T3 cells. For each cell type, 15,000 cells were plated and grown overnight at 37° C. The next day, the cells were transfected as described in Example 25 with 10 ng pGL4.13 (Promega Corp.) as a transfection control and 100 ng of the OgLuc test DNA. The media was removed, and the cells were lysed with 100 μL of lysis buffer as described in Example 25 except the lysis buffer contained 100 mM MES pH 6.0 instead of HEPES, and luminescence measured using a GLOMAX® Luminometer.
as §1
(§3) The brightness of the variants expressed in HEK293 and NIH3T3 cells was measured as described previously. The luminescence of the variants was normalized to the luminescence generated by 9B8 opt (Table 27).
(§4) The variants 9B8 opt+K33N+T39T+K43R+Y68D (“V2”; SEQ ID NOs: 92 and 93), 9B8 opt+K33N+L27V+K43R+Y68D (SEQ ID NOs: 339 and 340), 9B8 opt+K33N+L27V+T39T+K43R+S66N (SEQ ID NOs: 341 and 342), and 9B8 opt+K33N+L27V+T39T+K43R+Y68D (“L27V”; SEQ ID NOs: 88 and 89) were subcloned into the Id-OgLuc-HT7 sandwich background as described above and assayed in HEK293 and NIH3T3 cells as described above. The luminescence generated by the sandwiched variants were compared to the luminescence generated by the […] sandwich (SEQ ID NOs: 59 and 60) (Table 38). The L27V sandwich (SEQ ID NOs: 90 and 91) and V2 sandwich (SEQ ID NOs: 94 and 95) had at least 1.3× fold-increase in luminescence in HEK293 and NIH3T3 cells.
(§5) The sandwich and non-sandwich versions of the variants V2, 9B8 opt+K33N+L27V+K43R+Y68D, 9B8 opt+K33N+L27V+T39T+K43R+S66N, and L27V were assayed in HEK293 and NIH3T3 cells as described in Example 37. The luminescence generated by the non-sandwiched variants was compared to the luminescence generated by the sandwiched variants (Table 39).

[3] = Luminescence of OgLuc variants expressed in NIH3T3 cells; assay type: cell-based; settings: for Increase in Luminescence: NIH3T3: normalized to 9B8 opt
Procedure: as §2, §1, §3, §4, §5

[4] = Enzyme kinetics of OgLuc variants (Km, Vmax); assay type: biochemical, E. coli; settings: PBI-3939, average of three replicates
Procedure: Using methods known in the art, enzyme kinetic assays measuring luminescence were performed with the lysates of E. coli containing N and the IV variants 15C1, 9B8, 9F6, and 9A3. […] Two fold serial dilutions of PBI-3939 in the assay buffer described previously in Example 26 were assayed with the diluted lysates. […] Variants 9B8 and 9F6 had higher Km values compared to IV while Km values for the other variants were unchanged.
Luminescence was measured on a TECAN® INFINITE® F500 luminometer.
The enzyme kinetics values were determined for the OgLuc variants as described previously, except luminescence was measured using a GLOMAX® luminometer. Three replicates were used for each variant.

[5] = assay type: physicochemical, E. coli; settings: for ½ life hours: 60° C., assay buffer 100 mM MES pH 6.0
Procedure: Aliquots were removed at different time-points and placed on dry ice to freeze the samples. […] Luminescence was measured on a GLOMAX® luminometer (Promega Corp.).
The thermal stability of the variants at 60° C. was examined as described above, except the assay buffer contained 100 mM MES pH 6.0 instead of HEPES.

[6] = relative specificity for PBI-3939

B1: L27V: 9B8 opt+K33N variant with L27V, T39T, K43R, Y68D (protein)
chain: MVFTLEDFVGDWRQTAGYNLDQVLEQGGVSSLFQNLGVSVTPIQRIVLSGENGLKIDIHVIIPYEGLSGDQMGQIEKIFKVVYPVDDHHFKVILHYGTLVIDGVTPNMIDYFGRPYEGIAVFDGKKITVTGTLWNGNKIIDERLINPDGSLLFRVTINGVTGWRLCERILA
[1]
  Fold over coelenterazine: 110
  Fold over 9B8: 1.8
[1]; luminescence, PBI-3939
  Fold over 9B8 opt + K33N: E. coli: 0.9
[1]; [6]
  Fold over Native Coelenterazine: E. coli: 85.2
[2]
  Fold-Decrease in Luminescence in the Presence of Sandwich Background: HEK 293: 6
  Increase in Luminescence: HEK293: 1.6
[2]; luminescence, PBI-3939
  Fold over 9B8 opt + K33N: HEK293: 0.8
[2]; [6]
  Fold over Native Coelenterazine: HEK293: 97
[3]
  Fold-Decrease in Luminescence in the Presence of Sandwich Background: NIH 3T3 cells: 18
  Increase in Luminescence: NIH3T3: 1.6
[3]; luminescence, PBI-3939
  Fold over 9B8 opt + K33N: NIH3T3: 0.7
[3]; [6]
  Fold over Native Coelenterazine: NIH3T3: 85
[4]
  Km: 13.9 µM
  Vmax: 190,000,000 RLU/0.5 sec
[5]
  ½ life hours: 21.7 h

B2: 9B8 opt: codon optimized version of the 9B8 variant (protein)
chain: B1 chain with V29L, N35K, R45K, D70Y
[5]; luminescence at start of incubation (t=0)
  RLU: 23,283,252,000 RLU
[5]; pH 7
  T1/2(60° C.): 5.7 h

B3: 9B8: IV variant with Q18L, F68Y, L72Q, M75K; in Tables 12, 22, 23, 26, 27 “9B8” stands for 9B8 opt (protein)
chain: B1 chain with V29L, N35K, R45K, D70Y
[1]
  Fold over coelenterazine: 7
  Fold over 9B8: 1.0
[2]
  Increase in Luminescence: HEK293: 1.0
[3]
  Increase in Luminescence: NIH3T3: 1.0
[4]
  Km: 7.7 µM
  Vmax: 86,000,000 RLU/0.5 sec
[5]
  ½ life hours: 5.1 h
